Measured values as given in the RNAGym collection of RNA variant scans (doi:10.1093/molbev/msab373).

B1: Azoarcus group I ribozyme (parent)
chain: GUGCCUUGCGCCGGGAAACCACGCAAGGGAUGGUGUCAAAUUCGGCGAAACCUAAGCGCCCGCCCGGGCGUAUGGCAACGCCGAGCCAAGCUUCGGCGCCUGCGCCGAUGAAGGUGUAGAGACUAGACGGCACCCACCUAAGGCAAACGCUAUGGUGAAGGCAUAGUCCAGGGAGUGGCGAAAGUCACACAAACCGG

Variants of: B1
Assay: reverse-splicing fitness (ratio to wild type); higher = more active; in vitro selection; Mg2+ level not given
Method in brief: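 An in vitro group I ribozyme library with randomized positions was T7-transcribed and gel-purified. In triplicate, 10 pmol RNA in EPPS pH 7.5 was reacted with 50 pmoles of a 30-nt RNA substrate for 1 h at 37 °C across several added MgCl2 levels (1–48 mM), then stopped with EDTA. Products were reverse transcribed from a substrate-complementary primer, PCR-amplified and sequenced (HiSeq 4000). Fitness is a variant's read proportion after selection over that before, normalised to wild type.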

Variant | reverse-splicing fitness
GUGCCUUGCGCCGGGAAACCACGCAAGGGAUGGUGUCAAAUUCGGCGAAACCUAAGCGCCCGCCCGGGCGUAUGGCAACGCUGAGCCAAGCUUCGGCGCCUGCGCCGAUGGAGGUGUAGCGACUAGACGGCACCCACCUAAGGCAAACGCUAUGGUGAAGGCAUAGUCAAGGGAGUGGCGAAAGUCACACAAACCGG [C82U A111G A120C C169A] | 0.00806
GUGCCUUGCGCCGGGAAACCACGCAAGGGAUGGUGUCAAAUUCGGCGAAACCUAAGCGCCCGCCCGGGCGUAUGGCAACGCUGAGCCAAGCUUCGGCGCCUGCGCCGAUGGAGGUGUAGCGACUAGACGGCACCCACCUAAGGCAAACGUUAUGGUGAAGGCAUAGUCCAGGGAGGGGCGAAAGUCACACAAACCGG [C82U A111G A120C C150U U176G] | 0.00651
GUGCCUUGCGCCGGGAAACCACGCAAGGGAUGGUGUCAAAUUCGGCGAAACCUAAGCGCCCGCCCGGGCGUAUGGCAACGCUGAGCCAAGCUUCGGCGCCUGCGCCGAUGGAGGUGUAGCGACUAGACGGCACCCACCUAAGGCAAACGUUAUGGUGAAGGCAUAGUCCAGGGAGCGGCGAAAGUCACACAAACCGG [C82U A111G A120C C150U U176C] | 0.0218
GUGCCUUGCGCCGGGAAACCACGCAAGGGAUGGUGUCAAAUUCGGCGAAACCUAAGCGCCCGCCCGGGCGUAUGGCAACGCUGAGCCAAGCUUCGGCGCCUGCGCCGAUGGAGGUGUAGCGACUAGACGGCACCCACCUAAGGCAAACGUUAUGGUGAAGGCAUAGUCCAGGGAGAGGCGAAAGUCACACAAACCGG [C82U A111G A120C C150U U176A] | 0.0148
GUGCCUUGCGCCGGGAAACCACGCAAGGGAUGGUGUCAAAUUCGGCGAAACCUAAGCGCCCGCCCGGGCGUAUGGCAACGCUGAGCCAAGCUUCGGCGCCUGCGCCGAUGGAGGUGUAGCGACUAGACGGCACCCACCUAAGGCAAACGUUAUGGUGAAGGCAUAGUCGAGGGAGAGGCGAAAGUCACACAAACCGG [C82U A111G A120C C150U C169G U176A] | 0.0205
GUGCCUUGCGCCGGGAAACCACGCAAGGGAUGGUGUCAAAUUCGGCGAAACCUAAGCGCCCGCCCGGGCGUAUGGCAACGCUGAGCCAAGCUUCGGCGCCUGCGCCGAUGGAGGUGUAGCGACUAGACGGCACCCACCUAAGGCAAACGUUAUGGUGAAGGCAUAGUCGAGGGAGCGGCGAAAGUCACACAAACCGG [C82U A111G A120C C150U C169G U176C] | 0.0156
GUGCCUUGCGCCGGGAAACCACGCAAGGGAUGGUGUCAAAUUCGGCGAAACCUAAGCGCCCGCCCGGGCGUAUGGCAACGCUGAGCCAAGCUUCGGCGCCUGCGCCGAUGGAGGUGUAGCGACUAGACGGCACCCACCUAAGGCAAACGUUAUGGUGAAGGCAUAGUCGAGGGAGGGGCGAAAGUCACACAAACCGG [C82U A111G A120C C150U C169G U176G] | 0.00447
GUGCCUUGCGCCGGGAAACCACGCAAGGGAUGGUGUCAAAUUCGGCGAAACCUAAGCGCCCGCCCGGGCGUAUGGCAACGCUGAGCCAAGCUUCGGCGCCUGCGCCGAUGGAGGUGUAGCGACUAGACGGCACCCACCUAAGGCAAACGGUAUGGUGAAGGCAUAGUCGAGGGAGCGGCGAAAGUCACACAAACCGG [C82U A111G A120C C150G C169G U176C] | 0.00429
GUGCCUUGCGCCGGGAAACCACGCAAGGGAUGGUGUCAAAUUCGGCGAAACCUAAGCGCCCGCCCGGGCGUAUGGCAACGCUGAGCCAAGCUUCGGCGCCUGCGCCGAUGGAGGUGUAGCGACUAGACGGCACCCACCUAAGGCAAACGGUAUGGUGAAGGCAUAGUCGAGGGAGAGGCGAAAGUCACACAAACCGG [C82U A111G A120C C150G C169G U176A] | 0.00718
GUGCCUUGCGCCGGGAAACCACGCAAGGGAUGGUGUCAAAUUCGGCGAAACCUAAGCGCCCGCCCGGGCGUAUGGCAACGCUGAGCCAAGCUUCGGCGCCUGCGCCGAUGGAGGUGUAGCGACUAGACGGCACCCACCUAAGGCAAACGGUAUGGUGAAGGCAUAGUCGAGGGAGGGGCGAAAGUCACACAAACCGG [C82U A111G A120C C150G C169G U176G] | 0.00467
GUGCCUUGCGCCGGGAAACCACGCAAGGGAUGGUGUCAAAUUCGGCGAAACCUAAGCGCCCGCCCGGGCGUAUGGCAACGCUGAGCCAAGCUUCGGCGCCUGCGCCGAUGGAGGUGUAGCGACUAGACGGCACCCACCUAAGGCAAACGGUAUGGUGAAGGCAUAGUCUAGGGAGUGGCGAAAGUCACACAAACCGG [C82U A111G A120C C150G C169U] | 0.00828
GUGCCUUGCGCCGGGAAACCACGCAAGGGAUGGUGUCAAAUUCGGCGAAACCUAAGCGCCCGCCCGGGCGUAUGGCAACGCUGAGCCAAGCUUCGGCGCCUGCGCCGAUGGAGGUGUAGCGACUAGACGGCACCCACCUAAGGCAAACGGUAUGGUGAAGGCAUAGUCGAGGGAGUGGCGAAAGUCACACAAACCGG [C82U A111G A120C C150G C169G] | 0.00713
GUGCCUUGCGCCGGGAAACCACGCAAGGGAUGGUGUCAAAUUCGGCGAAACCUAAGCGCCCGCCCGGGCGUAUGGCAACGCUGAGCCAAGCUUCGGCGCCUGCGCCGAUGGAGGUGUAGCGACUAGACGGCACCCACCUAAGGCAAACGGUAUGGUGAAGGCAUAGUCCAGGGAGCGGCGAAAGUCACACAAACCGG [C82U A111G A120C C150G U176C] | 0.00984
GUGCCUUGCGCCGGGAAACCACGCAAGGGAUGGUGUCAAAUUCGGCGAAACCUAAGCGCCCGCCCGGGCGUAUGGCAACGCUGAGCCAAGCUUCGGCGCCUGCGCCGAUGGAGGUGUAGCGACUAGACGGCACCCACCUAAGGCAAACGGUAUGGUGAAGGCAUAGUCCAGGGAGGGGCGAAAGUCACACAAACCGG [C82U A111G A120C C150G U176G] | 0.00249
GUGCCUUGCGCCGGGAAACCACGCAAGGGAUGGUGUCAAAUUCGGCGAAACCUAAGCGCCCGCCCGGGCGUAUGGCAACGCUGAGCCAAGCUUCGGCGCCUGCGCCGAUGGAGGUGUAGCGACUAGACGGCACCCACCUAAGGCAAACGGUAUGGUGAAGGCAUAGUCCAGGGAGAGGCGAAAGUCACACAAACCGG [C82U A111G A120C C150G U176A] | 0.00392
